One molecule from patent US20260184783A1 (Merck Sharp & Dohme, published 2026) can be followed below.

The target of assay [1] is T1, human PD-1 expressed on cells (human, UniProt Q15116 25-288).
T1 construct: the transgene used on the cells is not tied to it by number; also called hPD-1; CHO.hPD-1
The assay is described as follows: flow cytometry competition: blockade of human PD-L2-hFc binding to CHO-K1 cells expressing human PD-1; PE goat anti-human IgG. How it is done: (§1) Ligand competition assays were performed on human PD-1 over-expressing CHO cells. A Nanobody dilution series was prepared in assay buffer: PBS/10% FBS/0.05% sodium azide. […] 2×10⁴ cells/well were seeded in V-bottom 96-well plates and resuspended in 200 μL/well of the Nanobody/ligand dilution. After 90 minutes incubation at 4° C., the cells were washed with 100 μL/well assay buffer and resuspended in 100 μL/well PE-labeled Goat anti-human IgG (Southern Biotech, 2043-09). Samples were incubated for 30 minutes at 4° C., washed, and resuspended in 100 μL/well of 5 nM TOPRO3 (LifeTechnologies, T3606) solution before analysis on FACS CANTO II (BD).
On the technique in general: A flow cytometer gives signals particle by particle.

In assay [2] the target is T1, human PD-1 expressed on cells. Nature of the assay: flow cytometry competition: blockade of human PD-L1-hFc binding to CHO-K1 cells expressing human PD-1; PE goat anti-human IgG. How it is done:
as §1

For assay [3] the target is unchanged. The assay is described as follows: flow cytometry on CHO-K1 cells expressing human PD-1; anti-FLAG + PE goat anti-mouse. How it is done:
Binding to cell-expressed human PD-1 was evaluated on human PD-1 over-expressing CHO cells. A Nanobody dilution series was prepared in assay buffer: PBS/10% FBS/0.05% sodium azide. 1×10⁵ cells/well were transferred to a 96-well V-bottom plate and resuspended in 100 μL Nanobody dilution. After 30 minutes incubation at 4° C., the cells were washed with 100 μL/well assay buffer and resuspended in 100 μL/well of 1 μg/ml anti-FLAG (Sigma, F1804) or anti-HIS (AbD Serotec, MCA 1396). […] Samples were incubated for 30 minutes at 4° C., washed, and resuspended in 100 μL/well of 5 nM TOPRO3 (LifeTechnologies, T3606) solution before analysis on FACS CANTO II (BD).

For assay [4] the target is unchanged. Nature of the assay: cell-based or functional assay.

T1 sequence (Q15116 25-288 limits assumed): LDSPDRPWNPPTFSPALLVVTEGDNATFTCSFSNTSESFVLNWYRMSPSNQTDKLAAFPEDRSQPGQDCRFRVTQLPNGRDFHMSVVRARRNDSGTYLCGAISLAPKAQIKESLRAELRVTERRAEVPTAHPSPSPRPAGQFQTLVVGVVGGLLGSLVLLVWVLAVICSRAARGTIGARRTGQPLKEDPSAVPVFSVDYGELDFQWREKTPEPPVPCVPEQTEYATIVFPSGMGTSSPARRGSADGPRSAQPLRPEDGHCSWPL

B1: F023700706 (1PD102C12 (L11V, A14P, A74S, K83R, I89L)-FLAG3-HIS6) (VHH)
VHH: EVQLVESGGGVVQPGGSLRLSCAASGSIASIHAMGWFRQAPGKEREFVAVITWSGGITYYADSVKGRFTISRDNSKNTVYLQMNSLRPEDTALYYCAGDKHQSSWYDYWGQGTLVTVSS
notes: also called SO 1PD102C12 monomer
In general, EC50 (read off the curve) refers to the midpoint of the concentration-response curve. B1: the “IC50 (read off the curve)” value in assay [1] and in assay [2] was ~0.6 nM throughout. Moreover, in assay [3], the “EC50 (read off the curve)” value is ~0.9 nM. Also, the “EC50 (read off the curve), IL-2 promoter luciferase RLU” value in assay [4] was ~0.9 nM.
